Results as given in article PMC5603418 (The FEBS journal, 2017).

Tests used:
[1] = target: T1, Bdellovibrio bacteriovorus proline utilization A (BbPutA) (Bdellovibrio bacteriovorus, UniProt Q6MNK1); experiment: X-ray crystal structure, […] Å, of the covalently inactivated enzyme; type: binding
T1 sequence (Q6MNK1 1-982): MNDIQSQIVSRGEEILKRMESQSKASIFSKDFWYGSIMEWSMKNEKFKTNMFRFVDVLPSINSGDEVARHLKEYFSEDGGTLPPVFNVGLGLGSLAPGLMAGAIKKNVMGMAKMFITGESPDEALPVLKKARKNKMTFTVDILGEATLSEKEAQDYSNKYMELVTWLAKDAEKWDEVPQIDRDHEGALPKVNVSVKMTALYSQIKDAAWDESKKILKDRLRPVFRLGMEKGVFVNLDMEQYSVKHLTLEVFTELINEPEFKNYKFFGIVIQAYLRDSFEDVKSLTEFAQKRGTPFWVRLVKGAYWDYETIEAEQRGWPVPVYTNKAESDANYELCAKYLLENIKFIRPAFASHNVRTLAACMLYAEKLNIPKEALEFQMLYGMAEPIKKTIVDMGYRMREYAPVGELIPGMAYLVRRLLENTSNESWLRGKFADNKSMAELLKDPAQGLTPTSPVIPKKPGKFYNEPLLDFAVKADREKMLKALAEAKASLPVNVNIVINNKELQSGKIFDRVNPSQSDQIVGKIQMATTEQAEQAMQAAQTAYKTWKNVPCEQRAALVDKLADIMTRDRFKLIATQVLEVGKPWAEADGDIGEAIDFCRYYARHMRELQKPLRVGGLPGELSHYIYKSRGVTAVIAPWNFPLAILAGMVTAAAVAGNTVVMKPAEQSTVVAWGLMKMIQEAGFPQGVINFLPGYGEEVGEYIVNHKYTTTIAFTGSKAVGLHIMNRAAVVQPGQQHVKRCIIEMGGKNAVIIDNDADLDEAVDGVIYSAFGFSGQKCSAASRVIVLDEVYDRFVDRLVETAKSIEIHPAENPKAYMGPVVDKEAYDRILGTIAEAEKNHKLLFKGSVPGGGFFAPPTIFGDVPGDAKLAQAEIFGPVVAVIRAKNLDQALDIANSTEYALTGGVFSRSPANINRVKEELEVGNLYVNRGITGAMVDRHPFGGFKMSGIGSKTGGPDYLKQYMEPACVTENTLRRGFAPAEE

[2] = target: Desulfovibrio vulgaris proline utilization A (Desulfovibrio vulgaris str. Hildenborough); experiment: SAXS
SAXS = target: the molecule itself; experiment: SAXS
AUC [3] = target: the molecule itself; experiment: AUC
AUC [4] = target: the molecule itself; experiment: AUC; remark: listed apart in the source

C#CCNCC(=O)O [compound 1, N-propargylglycine]
X-ray crystal structure, 2.2 Å, of the covalently inactivated enzyme [1]: 3-carbon link between Lys196 and the N5 of the FAD consistent with the presence of a covalent NPPG modification

Desulfovibrio vulgaris proline utilization A (enzyme)
stoichiometry N [2]: 2

B1: Bdellovibrio bacteriovorus proline utilization A (enzyme, Bdellovibrio bacteriovorus HD100, UniProt Q6MNK1 1-982, looked up)
chain: MNDIQSQIVSRGEEILKRMESQSKASIFSKDFWYGSIMEWSMKNEKFKTNMFRFVDVLPSINSGDEVARHLKEYFSEDGGTLPPVFNVGLGLGSLAPGLMAGAIKKNVMGMAKMFITGESPDEALPVLKKARKNKMTFTVDILGEATLSEKEAQDYSNKYMELVTWLAKDAEKWDEVPQIDRDHEGALPKVNVSVKMTALYSQIKDAAWDESKKILKDRLRPVFRLGMEKGVFVNLDMEQYSVKHLTLEVFTELINEPEFKNYKFFGIVIQAYLRDSFEDVKSLTEFAQKRGTPFWVRLVKGAYWDYETIEAEQRGWPVPVYTNKAESDANYELCAKYLLENIKFIRPAFASHNVRTLAACMLYAEKLNIPKEALEFQMLYGMAEPIKKTIVDMGYRMREYAPVGELIPGMAYLVRRLLENTSNESWLRGKFADNKSMAELLKDPAQGLTPTSPVIPKKPGKFYNEPLLDFAVKADREKMLKALAEAKASLPVNVNIVINNKELQSGKIFDRVNPSQSDQIVGKIQMATTEQAEQAMQAAQTAYKTWKNVPCEQRAALVDKLADIMTRDRFKLIATQVLEVGKPWAEADGDIGEAIDFCRYYARHMRELQKPLRVGGLPGELSHYIYKSRGVTAVIAPWNFPLAILAGMVTAAAVAGNTVVMKPAEQSTVVAWGLMKMIQEAGFPQGVINFLPGYGEEVGEYIVNHKYTTTIAFTGSKAVGLHIMNRAAVVQPGQQHVKRCIIEMGGKNAVIIDNDADLDEAVDGVIYSAFGFSGQKCSAASRVIVLDEVYDRFVDRLVETAKSIEIHPAENPKAYMGPVVDKEAYDRILGTIAEAEKNHKLLFKGSVPGGGFFAPPTIFGDVPGDAKLAQAEIFGPVVAVIRAKNLDQALDIANSTEYALTGGVFSRSPANINRVKEELEVGNLYVNRGITGAMVDRHPFGGFKMSGIGSKTGGPDYLKQYMEPACVTENTLRRGFAPAEE
stoichiometry N (SAXS): 2

B2: Bdellovibrio bacteriovorus proline utilization A inactivated by N-propargylglycine (enzyme, Bdellovibrio bacteriovorus HD100, UniProt Q6MNK1 1-982, looked up)
chain: MNDIQSQIVSRGEEILKRMESQSKASIFSKDFWYGSIMEWSMKNEKFKTNMFRFVDVLPSINSGDEVARHLKEYFSEDGGTLPPVFNVGLGLGSLAPGLMAGAIKKNVMGMAKMFITGESPDEALPVLKKARKNKMTFTVDILGEATLSEKEAQDYSNKYMELVTWLAKDAEKWDEVPQIDRDHEGALPKVNVSVKMTALYSQIKDAAWDESKKILKDRLRPVFRLGMEKGVFVNLDMEQYSVKHLTLEVFTELINEPEFKNYKFFGIVIQAYLRDSFEDVKSLTEFAQKRGTPFWVRLVKGAYWDYETIEAEQRGWPVPVYTNKAESDANYELCAKYLLENIKFIRPAFASHNVRTLAACMLYAEKLNIPKEALEFQMLYGMAEPIKKTIVDMGYRMREYAPVGELIPGMAYLVRRLLENTSNESWLRGKFADNKSMAELLKDPAQGLTPTSPVIPKKPGKFYNEPLLDFAVKADREKMLKALAEAKASLPVNVNIVINNKELQSGKIFDRVNPSQSDQIVGKIQMATTEQAEQAMQAAQTAYKTWKNVPCEQRAALVDKLADIMTRDRFKLIATQVLEVGKPWAEADGDIGEAIDFCRYYARHMRELQKPLRVGGLPGELSHYIYKSRGVTAVIAPWNFPLAILAGMVTAAAVAGNTVVMKPAEQSTVVAWGLMKMIQEAGFPQGVINFLPGYGEEVGEYIVNHKYTTTIAFTGSKAVGLHIMNRAAVVQPGQQHVKRCIIEMGGKNAVIIDNDADLDEAVDGVIYSAFGFSGQKCSAASRVIVLDEVYDRFVDRLVETAKSIEIHPAENPKAYMGPVVDKEAYDRILGTIAEAEKNHKLLFKGSVPGGGFFAPPTIFGDVPGDAKLAQAEIFGPVVAVIRAKNLDQALDIANSTEYALTGGVFSRSPANINRVKEELEVGNLYVNRGITGAMVDRHPFGGFKMSGIGSKTGGPDYLKQYMEPACVTENTLRRGFAPAEE
modifications: Lys196 covalently linked to the N5 atom of the FAD by a 3-carbon link (inactivation by N-propargylglycine)
stoichiometry N (AUC [3]): 2

B3: Bradyrhizobium japonicum proline utilization A (enzyme, UniProt Q89E26 1-999, looked up)
chain: MPNIPPPFTAPYAPDDAEIAARLLPASHLSPPQEARIHRTATRLIEAIRKRDDRLGGVEDMLREFALSTKEGLALMVLAEALLRVPDARTADQFIEDKLGEGDFIHHETKSTAFLVNASAWALGLSARVIQPGETPDGTIGRLVKRLGAPAVRTATRQAMRLMGNHFVLGETIEQALERGKPRSGQKTRYSFDMLGEGARTAADARRYFDAYASAIETIGKAAGNHALPDRPGISVKLSALHPRFEAISRARVMVELVPQLLDLAQRAKAHDLNFTVDAEEADRLELSLDVIAATLADPSLKGWDGFGLAIQAYQKRASAVIDYVDALARAHDRKLMVRLVKGAYWDTEIKRAQERGLDGYPVFTRKAMTDLNYVACASKLLALRPRIFPQFATHNALTVATVLEMAEGSSGFEFQRLHGMGEALYEQLAKDHADIAYRTYAPVGSHRDLLAYLVRRLLENGANSSFVAQAADYRVPVPALLQRPADAIVRPQAAAHPRIPLPCDLFAPERRNSRGVEFGARTALDQLLTDVKAETGDLKPIADATPDQAHAAVAAARAGFAGWSRTPAGIRAAALEQAAHLLESRSAHFIALLQREGGKTLDDALSELREAADFCRYYAAQGRKLFGSETAMPGPTGESNALTMRGRGVFVAISPWNFPLAIFLGQVTAALMAGNSVVAKPAEQTPRIAREAVALLHEAGIPKSALYLVTGDGRIGAALTAHPDIAGVVFTGSTEVARSINRALAAKDGPIVPLIAETGGINAMIADATALPEQVADDVVTSAFRSAGQRCSALRLLFVQEDVADRMIEMVAGAARELKIGDPSDVATHVGPVIDVEAKQRLDAHIARMKTEARLHFAGPAPEGCFVAPHIFELTEAGQLTEEVFGPILHVVRYRPENLERVLRAIERTGYGLTLGVHSRIDDSIEAIIDRVQVGNIYVNRNMIGAVVGVQPFGGNGLSGTGPKAGGPHYLARFATEQTVTINTAAAGGNAALLAGEE
stoichiometry N (AUC [4]): 4
